We go through three proteins from patent publication US20090068174.

For series [1], the target named is human recombinant TNF-α, P01375.
The target in the next series is T1, D-val-leu-lys-pNA.
T1 chain: VLK

Series [2] concerns the target T2, human recombinant IFN-γ, P01579.
T2 chain: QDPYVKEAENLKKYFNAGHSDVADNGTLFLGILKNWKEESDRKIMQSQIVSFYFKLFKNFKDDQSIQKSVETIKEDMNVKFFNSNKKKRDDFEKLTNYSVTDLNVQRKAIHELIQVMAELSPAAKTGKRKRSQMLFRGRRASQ

In series [3] the target is T3, mouse recombinant TNF-α, P06804.
T3 chain: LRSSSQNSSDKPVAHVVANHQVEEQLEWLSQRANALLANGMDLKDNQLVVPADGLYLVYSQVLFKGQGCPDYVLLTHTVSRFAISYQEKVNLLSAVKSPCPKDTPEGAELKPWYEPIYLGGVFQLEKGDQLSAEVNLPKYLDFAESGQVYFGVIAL

The target of series [4] is T4, mouse recombinant IFN-γ, P01580.
T4 chain: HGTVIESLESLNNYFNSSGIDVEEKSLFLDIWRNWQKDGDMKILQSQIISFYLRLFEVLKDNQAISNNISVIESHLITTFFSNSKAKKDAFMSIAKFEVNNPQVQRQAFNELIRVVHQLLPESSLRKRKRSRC

human recombinant TNF-α, P01375, sequence (P01375 77-233): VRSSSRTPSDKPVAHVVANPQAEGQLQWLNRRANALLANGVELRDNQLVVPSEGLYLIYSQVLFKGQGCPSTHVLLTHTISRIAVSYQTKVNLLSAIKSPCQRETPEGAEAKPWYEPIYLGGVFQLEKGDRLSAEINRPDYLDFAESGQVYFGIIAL

B1: Aspergillus oryzae deuterolysin (neutral protease II) (protein)
chain: TEVTDCKGDAESSLTTALSNAAKLANQAAEAAESGDESKFEEYFKTTDQQTRTTVAERLRAVAKEAGSTSGGSTTYHCNDPYGYCEPNVLAYTLPSKNEIANCDIYYSELPPLAQKCHAQDQATTTLHEFTHAPGVYQPGTEDLGYGYDAATQLSAQDALNNADSYALYANAIELKC
For the protein B1, in series [1], the “Proteolysis by Western blotting (50 ng cytokine, 2.5-10 ng protease, overnight at 37° C.)” value is listed as “deuterolysin was without significant effect”. The protein also came in with a Specific activity: hydrolysis of Val-leu-lys-pNA (absorbance at 405 nm) (mOD/min/µg protein) with D-val-leu-lys-pNA of 2.3. Further, the Specific activity: hydrolysis of salmon protamine (ninhydrin assay) (nmoles Leucine/30 min./µg protein) with salmon protamine sulfate was determined as 677. In addition, the “Proteolysis by Western blotting” value in series [2] is “both deuterolysin and 26 kDa protease cleave human IFN-γ”.

B2: Aspergillus oryzae alkaline protease (protein)
chain: GLTTQKSAPWGLGSISHKGQQSTDYIYDTSAGEGTYAYVVDSGVNVDHEEFEGRASKAYNAAGGQHVDSIGHGTHVSGTIAGKTYGIAKKASILSVKVFQGESSSTSVILDGFNWAANDIVSKKRTSKAAINMSLGGGYSKAFNDAVENAFEQGVLSVVAAGNENSDAGQTSPASAPDAITVAAIQKSNNRASFSNFGKVVDVFAPGQDILSAWIGSSSATNTISGTSMATPHIVGLSLYLAALENLDGPAAVTKRIKELATKDWKDVKGSPNLLAYNGNA
Consider B2, for which the “Proteolysis by Western blotting” value is listed as “alkaline protease (AP) purified from the protease powder prepared according to Example 1 evidenced the same substrate specificity” in series [3], “alkaline protease (AP) purified from the protease powder prepared according to Example 1 evidenced the same substrate specificity” in series [4] and “the protease did not cleave human IFN-γ” in series [2]. Moreover, in series [1], the “Proteolysis by Western blotting (50 ng cytokine, 2.5-10 ng protease, overnight at 37° C.)” value is “Alkaline protease and, to a lesser extent, 26 kDa protease each produced a similar pattern of cleavage”. In the series with D-val-leu-lys-pNA, this protein showed a Specific activity: hydrolysis of Val-leu-lys-pNA (absorbance at 405 nm) (mOD/min/µg protein) of 117. For the same protein, the Specific activity: hydrolysis of salmon protamine (ninhydrin assay) (nmoles Leucine/30 min./µg protein) with salmon protamine sulfate was 951.

B3: Aspergillus oryzae 26 kDa protease (protein)
chain: HASADAWASSKAISSTSSPSSFKMRFISVSSLLLALAPALNAVPVEVAGSAQGLDVTLSQVGNTRIKAWKNTGSEDVTFVHLNFFKDAAPVQKVSLFRNATEVQFQGIKQRLITEGLSDDALTTLAPGATIEDEFDIASTSDLSEGGTITINSNGLVPITTDNKVTGYIPFTSNELSIDVDAAEAASVTQAVKILERRTKVTSCSGSRLSALQTALRNTVSLARAAATAAQSGSSSRFQEYFKTTSSSTRSTVAARLNAVANEAASTSSGSTTYYCSDVYGYCSSNVLAYTLPSYNIIANCDLYYSYLPALTSTCHAQDQATTTLHEFTHAPGVYSPGTDDLGYGYSAATALSASQALLNADTYALFANAVNLNC
For B3, the “Proteolysis by Western blotting (50 ng cytokine, 2.5-10 ng protease, overnight at 37° C.)” value in series [1] is “Alkaline protease and, to a lesser extent, 26 kDa protease each produced a similar pattern of cleavage”. The protein further showed a Specific activity: hydrolysis of Val-leu-lys-pNA (absorbance at 405 nm) (mOD/min/µg protein) in the series with D-val-leu-lys-pNA of 2.1. The Specific activity: hydrolysis of salmon protamine (ninhydrin assay) (nmoles Leucine/30 min./µg protein) with salmon protamine sulfate amounted to 679. Besides, in series [2], the “Proteolysis by Western blotting” value is “both deuterolysin and 26 kDa protease cleave human IFN-γ”.
